Laboratory results: US20180264102A1
pKd: −log10 of the molar value.

How the values were obtained:
[1] = molecular target: Hoc- Soc- bacteriophage T4 capsid (Soc binding sites) (bacteriophage T4) (UniProt P04535); assay: in vitro binding to Hoc- Soc- T4 phage, SDS-PAGE
[2] = molecular target: Hoc- Soc- bacteriophage T4 capsid (Soc binding sites) (bacteriophage T4) (UniProt P04535)

F1mutV-Soc (66 kDa) recombinant protein with RB49 Soc
ratio of antigen molecules to Soc binding sites at saturation (antigen molecules : Soc binding sites) [1]: 20 | pKd [2]: 6.53 | percent occupancy of the 870 Soc binding sites [2]: 75%

Soc-PA (93 kDa) recombinant protein with RB49 Soc
ratio of antigen molecules to Soc binding sites at saturation (antigen molecules : Soc binding sites) [1]: 20 | pKd [2]: 6.13 | percent occupancy of the 870 Soc binding sites [2]: 42%
